Results as given in patent publication US20100160556A1 (published 2010).

Target: GLP-1 receptor (on a GLP-1 receptor transfected CHO cell line)
Test: cell-based or functional assay

ED50 relative to CM3 (GLP-1 bioassay, cAMP increase) [times] | IC50 (GLP-1 bioassay, cAMP increase) [µM] | Binder
~5 | – | HAEGTFTSDVSSYLEGQAAKEFIAWLVKGRGRRDFPEEVAIAEELGC (unbranched 40 kDa mPEG maleimido propionamide on the free thiol group of the C-terminal cysteine) [PEG-CM3-ANA08 (CM3-ANA08 conjugated to unbranched 40 kDa mPEG maleimido propionamide)]
– | 187 | HAEGTFTSDVSSYLEGQAAKEFIAWLVKGRGRRDFPEEVAIAEELG [CM3 (GLP-1(7-37)-IP2, murine IP2)]
– | 159 | HAEGTFTSDVSSYLEGQAAKEFIAWLVKGRGAADFPEEVAIAEELG [CM3-ANA01]
